Measurements taken from patent US12552866B2, “Internalizing binding molecules targeting receptors involved in cell proliferation or in cell differentiation” (LinXis B.V., priority 2019, dated 2026).
Entries after “also recorded” stand apart in the source; their conditions may differ. Each block holds one molecule with its values, some of them ahead of it.

Columns and labels:
[1] = molecular target: T1, hIGF2R-ECD (Homo sapiens, UniProt P11717); assay: Competition ELISA with 13F11-A647 on immobilized hIGF2R-ECD; type: binding; details: for competition with 13F11 for binding to hIGF2R-ECD: 10 nM 13F11-A647, 250 nM unconjugated competitor
T1 construct: recombinant human extracellular domain of IGF2R (hIGF2R-ECD)
Experimental: With the term “compete” is meant that in a competition assay, such as for instance described in Example 5 and Example 8 of the present invention, the addition of a binding molecule induces a significant decrease in binding of a given VHH, i.e., the VHH to which the competing is determined. “Significant” in this respect is preferably a decrease of >5%, preferably >10% when 250 nM of a binding molecule is added to 10 nM of a fluorescence labelled VHH in an ELISA. […] The same test conditions and threshold apply to a binding molecule directed to PDGFRB when determining whether a binding molecule competes with a given VHH.
From the panel of 15 hIGF2R specific binders (FIG. 2), VHHs 13A8, 13A12, 13C11, 13E8, 13F11 and 13G10 were chosen for further characterization. A competition assay was performed to determine if the selected VHHs recognize distinct epitopes on hIGF2R. For this, a non-saturating amount (10 nM) of 13F11 conjugated to Alexa Fluor 647 (13F11-A647, conjugation method as described in example 9.2) was incubated with immobilized hIGF2R-ECD in the presence of unconjugated competitor (250 nM) (FIG. 10). Incubation of hIGF2R-ECD with 13F11-A647+13F11 was used as a positive control and incubation of hIGF2R-ECD with only 13F11-A647 was used to define the maximal fluorescence intensity.

[2] = In vivo pharmacokinetics in healthy Sprague-Dawley rats (serum ELISA); design: species or system rat
Experimental: The in vivo pharmacokinetic properties of 13F11-13E8-ABD was compared to 13F11-13E8 without the ABD moiety in healthy Sprague-Dawley rats. In brief, rats were dosed intravenously with approximately 3 mg/kg body weight and blood samples were taken at different time points and the concentration of the VHH constructs were determined using an ELISA on immobilized hIGF2R-ECD.

[3] = molecular target: T2, IGF2R (Rattus norvegicus, UniProt G3V824); assay: Immunofluorescence staining of tissue cryo-sections of BDL and SHAM rats
T2 construct: from tissue; host or cells: cryo-sections of liver and other tissues, and liver in vivo, of Sprague-Dawley BDL and SHAM rats
T2 sequence (G3V824 36-2481): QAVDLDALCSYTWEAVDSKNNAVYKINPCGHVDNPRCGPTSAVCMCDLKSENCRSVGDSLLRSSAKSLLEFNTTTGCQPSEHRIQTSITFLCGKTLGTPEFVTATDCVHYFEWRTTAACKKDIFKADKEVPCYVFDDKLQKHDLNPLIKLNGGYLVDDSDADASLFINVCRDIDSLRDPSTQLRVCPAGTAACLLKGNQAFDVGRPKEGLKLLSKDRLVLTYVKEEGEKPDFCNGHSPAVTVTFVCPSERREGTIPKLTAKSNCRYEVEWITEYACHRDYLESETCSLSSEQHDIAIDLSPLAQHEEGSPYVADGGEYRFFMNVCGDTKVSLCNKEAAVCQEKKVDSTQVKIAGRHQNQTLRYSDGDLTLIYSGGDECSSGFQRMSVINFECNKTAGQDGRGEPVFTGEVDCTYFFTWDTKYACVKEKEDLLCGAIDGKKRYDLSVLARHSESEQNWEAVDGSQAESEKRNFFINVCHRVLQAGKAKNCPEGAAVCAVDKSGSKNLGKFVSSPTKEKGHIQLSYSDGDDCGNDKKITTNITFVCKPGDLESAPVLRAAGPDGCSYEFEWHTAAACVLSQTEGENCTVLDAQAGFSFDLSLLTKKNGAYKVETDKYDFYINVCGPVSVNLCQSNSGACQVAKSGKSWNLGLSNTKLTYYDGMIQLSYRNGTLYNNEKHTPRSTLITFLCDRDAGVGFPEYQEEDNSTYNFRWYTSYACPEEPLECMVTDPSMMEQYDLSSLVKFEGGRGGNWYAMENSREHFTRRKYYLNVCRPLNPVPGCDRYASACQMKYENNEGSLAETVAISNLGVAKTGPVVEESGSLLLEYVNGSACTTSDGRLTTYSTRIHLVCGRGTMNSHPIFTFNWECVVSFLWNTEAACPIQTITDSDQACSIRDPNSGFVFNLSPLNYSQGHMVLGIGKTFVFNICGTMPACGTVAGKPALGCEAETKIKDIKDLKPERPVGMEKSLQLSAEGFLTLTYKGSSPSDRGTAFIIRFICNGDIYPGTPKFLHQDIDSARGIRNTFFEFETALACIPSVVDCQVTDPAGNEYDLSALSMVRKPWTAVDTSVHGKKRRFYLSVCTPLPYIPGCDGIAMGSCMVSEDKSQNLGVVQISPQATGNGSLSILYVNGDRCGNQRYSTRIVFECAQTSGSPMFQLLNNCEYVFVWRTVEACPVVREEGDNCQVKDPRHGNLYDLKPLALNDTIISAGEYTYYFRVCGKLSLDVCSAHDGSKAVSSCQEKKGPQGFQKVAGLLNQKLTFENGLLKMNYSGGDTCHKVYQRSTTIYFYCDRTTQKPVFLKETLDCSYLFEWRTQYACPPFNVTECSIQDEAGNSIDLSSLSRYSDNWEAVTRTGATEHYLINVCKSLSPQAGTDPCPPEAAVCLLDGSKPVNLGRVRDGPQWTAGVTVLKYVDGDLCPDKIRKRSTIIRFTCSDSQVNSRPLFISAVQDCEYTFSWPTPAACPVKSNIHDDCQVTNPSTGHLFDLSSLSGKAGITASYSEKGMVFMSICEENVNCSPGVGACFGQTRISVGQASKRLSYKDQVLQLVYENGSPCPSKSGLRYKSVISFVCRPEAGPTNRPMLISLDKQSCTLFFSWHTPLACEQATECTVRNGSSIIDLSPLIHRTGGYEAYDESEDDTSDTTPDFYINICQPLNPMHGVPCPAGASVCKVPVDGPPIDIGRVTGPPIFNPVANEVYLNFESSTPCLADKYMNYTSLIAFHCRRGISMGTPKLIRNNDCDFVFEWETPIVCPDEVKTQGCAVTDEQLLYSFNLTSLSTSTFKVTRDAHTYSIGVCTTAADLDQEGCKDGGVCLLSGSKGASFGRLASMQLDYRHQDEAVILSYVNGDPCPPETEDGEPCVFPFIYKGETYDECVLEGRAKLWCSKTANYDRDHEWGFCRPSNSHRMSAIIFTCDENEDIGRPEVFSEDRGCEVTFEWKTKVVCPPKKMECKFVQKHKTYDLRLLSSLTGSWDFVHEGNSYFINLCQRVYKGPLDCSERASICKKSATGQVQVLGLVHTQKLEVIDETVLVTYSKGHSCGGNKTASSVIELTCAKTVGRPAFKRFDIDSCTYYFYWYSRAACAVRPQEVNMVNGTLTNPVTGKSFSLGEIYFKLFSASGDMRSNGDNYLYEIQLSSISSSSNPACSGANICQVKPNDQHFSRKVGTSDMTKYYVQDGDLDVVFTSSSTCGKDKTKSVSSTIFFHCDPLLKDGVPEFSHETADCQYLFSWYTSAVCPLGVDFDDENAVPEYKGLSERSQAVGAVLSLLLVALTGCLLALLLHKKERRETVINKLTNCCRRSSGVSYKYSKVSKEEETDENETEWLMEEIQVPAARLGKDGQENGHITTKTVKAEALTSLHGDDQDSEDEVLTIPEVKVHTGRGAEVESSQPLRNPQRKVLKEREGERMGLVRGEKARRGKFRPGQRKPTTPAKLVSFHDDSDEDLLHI
Experimental: After cryo-sectioning, the tissue sections were stained with 50 nM fluorescent 13F11-13E8-ABD-AF647 and incubated overnight at 4° C. Subsequently, the sections were washed and stained with DAPI and mounted with mowiol mounting medium (Merck) and were imaged on a Zeiss LSM700 laser scanning confocal microscope with a 20× objective.

[4] = molecular target: T1, hIGF2R-ECD; assay: Binding assay / titration ELISA on recombinant hIGF2R-ECD; details: construct conjugated to Alexa Fluor 647, direct read out; KD+SEM, n=2; read-out: calculated affinity (KD)
Experimental: The 15 unique hIGF2R binders (Example 1.1, FIG. 2) were produced and purified as described in examples 2 and 3. The apparent affinities were determined with binding assays on hIGF2R-ECD. Briefly, three-fold serial VHH dilutions, starting from 1 μM, were added onto hIGF2R-ECD coated plates. After 2 hours of incubation, plates were washed and bound VHH was detected using a VHH-specific IgG antibody, followed by an IRD800CW-conjugated IgG-specific antibody. […] VHH 13F11 was also produced with a C-terminal free cysteine and conjugated using maleimide chemistry to Alexa Fluor 647 (13F11-A647 in FIG. 8A, conjugation method as described in example 9.2). A titration ELISA (direct read out at 647 nm) with this construct was carried out on hIGF2R-ECD to determine whether the affinity was affected after site directed conjugation (FIG. 8B). The KD and Bmax were calculated in Graphpad (version 8.3), using one-site specific binding analysis (FIG. 8C).
Based on their high affinity and binding to non-overlapping receptor epitopes, VHHs 13F11 and 13E8 were selected for the design of biparatopic and bivalent VHH constructs. Two VHHs were fused with a flexible linker, consisting of three Gly-Gly-Gly-Gly-Ser repeats (FIG. 8A). The sequences were codon optimized for expression in E. coli and obtained as synthesized DNA fragments from GeneArt. The DNA fragments encoding VHHs were cloned into a vector pET28-based vector introducing a C-terminal free cysteine for site-directed conjugation and His6 tag for IMAC purification (FIG. 8A). The constructs were produced and purified as described in example 3. The constructs were conjugated to Alexa Fluor 647 (conjugation method as described in example 9.2) and titration ELISAs on recombinant hIGF2R-ECD (as described in example 4.1) were performed to determine the KD and Bmax (calculated in Graphpad (version 8.3), using one-site specific binding analysis) (FIG. 8C).
Next, 13F11-13E8 was genetically re-engineered to include an in vivo half-life extender in the form of an albumin binding domain (ABD) as described by Johansson et al (Structure, specificity, and mode of interaction for bacterial albumin-binding modules, J. Biol. Chem. 2002 (277): 8114-8120) and subsequently produced and purified as described in Example 3. Subsequently, 13F11-13E8-ABD was conjugated to IRDye800CW (F11E8-ABD-IRD800, conjugation method as described in example 9.2) and the binding affinities of the biparatopic VHH as well as the ABD unit was determined. […] The binding affinity (KD) of F11-E8-ABD-IRD800 to rat serum albumin (RSA) was 30 nM and to mouse serum albumin (MSA) and human serum albumin (HSA) the binding affinity was approximately 200 nM.

- competition with 13F11 for binding to hIGF2R-ECD [1]: compete
B1: 13A12: VHH targeting IGF2R, SEQ ID NO: 289 (protein, listed as Lama glama)
VHH: EVQLVESGGGLVQAGGSLRLSCAASGIIFGANTVGWYRQVPGKERDVVASITSGDSTYYGDSVRGRFTISRDNAKNTMYLQMNSLKPEDTAIYYCRARTTDGSYWGQGTQVTVS

- competition with 13F11 for binding to hIGF2R-ECD [1]: compete
B2: 13C11: VHH targeting IGF2R, SEQ ID NO: 297 (protein, listed as Lama glama)
VHH: EVQLVESGGGLVQAGGSLRLSCAASGLTFSSYTMAWYRQAPGKEREVVAAISSGDSIYHEGSVQGRFIISRDNAKNTVYLQMNSLKAEDTAVYYCRANGPGTYWGQGTQVTVSS

- competition with 13F11 for binding to hIGF2R-ECD [1]: compete
B3: 13G10: VHH targeting IGF2R, SEQ ID NO: 305 (protein, listed as Lama glama)
VHH: EVQLVESGGGLVQAGGSLRLSCAASGLTFSSYTMAWYRQAPGKEREVVAAISSGDSIYHEDSVQGRFIISRDNAKNTVYLQMNSLKAEDTAVYYCRANGPGTYWGQGTQVTVSS

B4: 13F11-13E8-ABD: 13F11-13E8 re-engineered to include an albumin binding domain (ABD) as half-life extender (protein)
chain: EVQLVESGGRLVQPGDSLRLSCAASGRTFSDNAMGWFRQAPGKERRFVAGISWAGGSTYYSDSVKGRFTISRDNAKNTVYLQMNSLKPEDTAVYYCAAGLRAWVQRMPKDYNYWGQGTQVTVSSGGGGSGGGGSGGGGSEVQLVESGGGLVQAGGSLRLSCAASRSISPMGWYRQAPGKQRELVAIMPSSGPPIYADSVQGRFTISRDNAKNTVYLQMNSLKPEDTAVYYCNVGGGYWGQGTQVTVSS
modifications: left off: large carriers; small tags and cut ends
- fraction of the infused dose still in circulation ([2]; one hour after dosing, estimated serum volume 10 mL): approximately 50%
- Cmax ([2]; rat, i.v., approximately 3 mg/kg, read-out: peak serum level (Cmax)): > 1000 nM

- binding to cells in liver sections of SHAM rats ([3]; 50 nM, overnight at 4° C.): not to cells in a liver from SHAM rats
- staining of other tissues (kidney, spleen, heart, ileum, brain) ([3]; BDL and SHAM rats): no, or minor staining
B5: 13F11-13E8-ABD-AF647: 13F11-13E8-ABD conjugated to Alexa Fluor 647 (conjugate)
chain: EVQLVESGGRLVQPGDSLRLSCAASGRTFSDNAMGWFRQAPGKERRFVAGISWAGGSTYYSDSVKGRFTISRDNAKNTVYLQMNSLKPEDTAVYYCAAGLRAWVQRMPKDYNYWGQGTQVTVSSGGGGSGGGGSGGGGSEVQLVESGGGLVQAGGSLRLSCAASRSISPMGWYRQAPGKQRELVAIMPSSGPPIYADSVQGRFTISRDNAKNTVYLQMNSLKPEDTAVYYCNVGGGYWGQGTQVTVSS
modifications: left off: large carriers; small tags and cut ends
- binding to cells in liver sections of BDL rats ([3]; 50 nM, overnight at 4° C.): clearly binds to cells in a liver from BDL rats

- Kd [4]: 1 ± 0.61 nM
B6: 13F11-A647: VHH 13F11 with C-terminal free cysteine conjugated using maleimide chemistry to Alexa Fluor 647 (conjugate)
VHH: EVQLVESGGRLVQPGDSLRLSCAASGRTFSDNAMGWFRQAPGKERRFVAGISWAGGSTYYSDSVKGRFTISRDNAKNTVYLQMNSLKPEDTAVYYCAAGLRAWVQRMPKDYNYWGQGTQVTVSS

B7: 13A8: VHH targeting IGF2R, SEQ ID NO: 257 (protein, listed as Lama glama)
VHH: EVQLVESGGGLVPAGGSLRLSCAASGRTFSNYAMGWFRQAPGKERKFVATISWSGGVTYYADSVKGRFTISRDNAKNTVYLLMNSLKPEDTAVYYCAAKRDSSSYDHRRYDYWGQGTQVTVSS
- competition with 13F11 for binding to hIGF2R-ECD [1]: complete competition; also recorded: compete

- decrease in fluorescence intensity of labelled 13F11 ([1]; 10 nM labelled 13F11, 250 nM unlabelled competitor): less than 5%
B8: 13E8: VHH targeting IGF2R, SEQ ID NO: 249 (protein, listed as Lama glama)
VHH: EVQLVESGGGLVQAGGSLRLSCAASRSISPMGWYRQAPGKQRELVAIMPSSGPPIYADSVQGRFTISRDNAKNTVYLQMNSLKPEDTAVYYCNVGGGYWGQGTQVTVSS
- competition with 13F11 for binding to hIGF2R-ECD [1]: did not compete; also recorded: do not compete
